Data published in PMC3461508.

B1: Cbp3 (natural protein)
chain: ETAQDSPELLAKSSHLNSKPLDVSNKAPVKTAQNKIPLAHSKYESSKYELPKWKEALGELVIRAFHLDMDRVRAGPVAGSYYYKICKEQGLQYEDEPLSETAKYFYEDLKLPRTFSQWFQITVLHEWILFVRMRAMPFKYGRNYQQKLVDRTFSDIELRLFEEMKVNSGRIADQYLKDFNTQLRGAIFAYDEGFATDDGTLATAVWRNLFGGRKNIDMVHLESVVRYIYSQLYVLSRLSDREFATGKFKFVPPGVKVEKLTPKQEEELKAKTIAKYEALDKDPKTLPSERSRLSYTN
B2: Cbp6 (natural protein)
chain: MSSSQVVRDSAKKLVNLLEKYPKDRIHHLVSFRDVQIARFRRVAGLPNVDDKGKSIKEKKPSLDEIKSIINRTSGPLGLNKEMLTKIQNKMVDEKFTEESINEQIRALSTIMNNKFRNYYDIGDKLYKPAGNPQYYQRLINAVDGKKKESLFTAMRTVLFGK

Molecular target: mitochondrial ribosome (S. cerevisiae (endogenous in W303))
Assay: co-sedimentation

Binder | percent bound to the ribosome
B1 | 20%
B2 | 20%
